{"source": "paper PMC4937829", "about": "(Nature structural & molecular biology, 2016)", "binders": {"B1": {"name": "Spy 29-124 (wild type) (domain or fragment, Escherichia coli)", "chain": "SFKDLNLTDAQKQQIREIMKGQRDQMKRPPLEERRAMHDIIASDTFDKVKAEAQIAKMEEQRKANMLAHMETQNKIYNILTPEQKKQFNANFEKRLT"}}, "key": {"Spy 29-124 (wild type) [1]": {"target": "B1", "test": "crystal structure"}, "Spy 29-124 (wild type) [2]": {"target": "B1", "test": "other fluorescence titration"}, "Spy H96L 29-124": {"target": "T1, Spy H96L 29-124 (Escherichia coli, UniProt P77754 52-147, H96L)", "T1 sequence": "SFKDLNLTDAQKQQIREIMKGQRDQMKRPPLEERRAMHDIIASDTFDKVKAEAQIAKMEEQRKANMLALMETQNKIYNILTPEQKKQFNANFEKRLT", "test": "crystal structure"}, "crystal structure": {"target": "the molecule itself", "test": "crystal structure"}}}
{"binder": "Ac-ELFRQFYQLDAYPSGAWYYVPLGTQYTDAP-NH2", "note": "[bovine alpha casein S1 148-177 peptide]", "values": [{"measurement": "binding result", "setting": "Spy 29-124 (wild type) [1]", "value": "binds"}]}
{"binder": "SISDYTEAEFVQLLKEIEKENVAATDDVLDVLLEHFVKIT", "note": "[Im7 6-45 peptide]", "values": [{"measurement": "binding result", "setting": "Spy 29-124 (wild type) [1]", "value": "binds"}]}
{"binder": "Im7 L18A L19A L37A H40W (natural protein, E. coli, UniProt Q03708 1-87, looked up) MELKNSISDYTEAEFVQAAKEIEKENVAATDDVLDVALEWFVKITEHPDGTDLIYYPSDNRDDSPEGIVKEIKEWRAANGKPGFKQG", "values": [{"measurement": "binding result", "setting": "Spy 29-124 (wild type) [2]", "value": "binds"}]}
{"binder": "wild-type (WT) E. coli Im7 (natural protein, UniProt Q03708 1-87, looked up) MELKNSISDYTEAEFVQLLKEIEKENVAATDDVLDVLLEHFVKITEHPDGTDLIYYPSDNRDDSPEGIVKEIKEWRAANGKPGFKQG", "values": [{"measurement": "binding result", "setting": "Spy H96L 29-124", "value": "binds"}]}
{"binder": "Im7 L18A L19A L37A (natural protein, E. coli, UniProt Q03708 1-87, looked up) MELKNSISDYTEAEFVQAAKEIEKENVAATDDVLDVALEHFVKITEHPDGTDLIYYPSDNRDDSPEGIVKEIKEWRAANGKPGFKQG", "values": [{"measurement": "binding result", "setting": "Spy H96L 29-124", "value": "binds"}]}
{"binder": "B1", "values": [{"measurement": "binding result", "setting": "crystal structure", "value": "binds"}]}
